The assay concerns the target hemocyanin from Fissurella latimarginata (Fissurella latimarginata). Put plainly: negative-stain transmission electron microscopy; purified FLH 100 µg/ml on parlodion-coated copper grid, stained with 1-2% aqueous uranyl acetate, 80 kV; quaternary structure of the assembled protein.

Take “hemocyanin from Fissurella latimarginata (natural protein)”: the stoichiometry N was found to be 20 subunits.

One may read the stoichiometry N as the number of molecules, sites or subunits per partner or assembly.
